Reference: patent US20070148130A1

Key:
MPRN-12 = tested on: T1, MPRN-12
T1 sequence: NVKGTEDSG

MPRN-20 = tested on: T2, MPRN-20
T2 sequence: KGTEDSGTT

partially purified native TRRE (pooled Phenyl Sepharose fractions with the highest specific activity, from stimulated THP-1 cells)
TNF-R peptide cleavage activity (FRET assay) of Phenyl Sepharose elution fractions (MPRN-12): The leading edge of the protein peak was found to give the highest FRET signal (shown here for MPRN-12) | specific activity in the FRET peptide cleavage assay (MPRN-12): a specific activity of 378 FU/µg in the FRET assay using the MPRN-12 substrate | TNF-R peptide cleavage activity (FRET assay) of Phenyl Sepharose elution fractions (MPRN-20): Fractions 4-6 but not 7-10 also cleaved MPRN-20
